For test [1], the target named is T1, IL17A (human, UniProt Q16552 24-155).
T1 construct: Recombinant human protein in ELISA and BLI
T1 sequence (looked up): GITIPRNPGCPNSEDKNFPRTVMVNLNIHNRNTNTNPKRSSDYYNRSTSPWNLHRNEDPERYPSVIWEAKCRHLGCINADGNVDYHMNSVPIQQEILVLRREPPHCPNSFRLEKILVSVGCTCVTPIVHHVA
As to the kind of experiment: BLI, AHC sensor, nanobody-Fc captured, antigen in solution. An excerpt:
(§1) Octet RED96 System (ForteBio) was used to perform kinetic measurement of nanobody binding to antigens. For Anti-Penta-His Biosensors (HIS1K), his-tagged recombinant human proteins were first immobilized onto the biosensors, and recombinant nanobodies fused with human IgG1 were applied to detect binding. For Anti-Human IgG Fc Capture Biosensors (AHC), recombinant nanobodies fused with human IgG1 were first loaded onto the biosensors, and probes were dipped in serial dilutions of recombinant human antigens.

Test [2] concerns the target T1, IL17A. Description: ELISA, plate-coated recombinant human protein, nanobody-Fc. The procedure: (§2) Recombinant human protein was diluted in PBS to a final concentration of 5 μg/mL and was immobilized on 96-well flat bottom MaxiSorp plates (Thermo Fisher Scientific) and placed at 4° C. overnight. Plates were washed three times with 225 μL ELISA wash buffer (PBS with 0.05% Tween 20) and 200 μL ELISA blocking buffer (PBS with 1% Casein) was added to the well. Plates were incubated with shaking for 2 hours at room temperature. ELISA blocking buffer was removed from the wells and appropriate dilutions of recombinant nanobodies in 100 μL ELISA blocking buffer was added to each well. Plates were incubated with shaking for 2 hours at room temperature. Plates were washed 3 times with 225 μL ELISA wash buffer and 1:5000 goat anti-human IgG HRP (Millipore Sigma) in 100 μL ELISA blocking buffer was added to the wells. Plates were incubated with shaking for 1 hour at room temperature. Plates were washed 6 times with 225 μL ELISA wash buffer. 50 μL TMB substrate (BD Biosciences) was added to the wells and plates were incubated for 15 minutes in the dark at room temperature. 50 μL 1 M sulfuric acid was added to the wells and absorbance at 450 nm was measured in a Synergy HTX Multi-Mode Microplate Reader (BioTek).

For test [3], the target named is T2, PROCR (human, UniProt Q9UNN8 18-210).
T2 construct: Recombinant human protein in ELISA and BLI
T2 sequence (looked up): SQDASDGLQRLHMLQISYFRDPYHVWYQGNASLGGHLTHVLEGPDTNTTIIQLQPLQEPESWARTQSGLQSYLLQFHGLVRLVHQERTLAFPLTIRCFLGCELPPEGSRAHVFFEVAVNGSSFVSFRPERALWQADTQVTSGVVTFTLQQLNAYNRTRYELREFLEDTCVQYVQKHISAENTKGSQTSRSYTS
As to the kind of experiment: BLI, AHC sensor, nanobody-Fc captured, antigen in solution.
From the text: as §1

For test [4], the target named is T2, PROCR. Description: ELISA, plate-coated recombinant human protein, nanobody-Fc. The protocol: as §2
In test [5] the target is T3, IL10RA (human, UniProt Q13651 22-235).
T3 construct: Recombinant human protein in ELISA
T3 sequence (looked up): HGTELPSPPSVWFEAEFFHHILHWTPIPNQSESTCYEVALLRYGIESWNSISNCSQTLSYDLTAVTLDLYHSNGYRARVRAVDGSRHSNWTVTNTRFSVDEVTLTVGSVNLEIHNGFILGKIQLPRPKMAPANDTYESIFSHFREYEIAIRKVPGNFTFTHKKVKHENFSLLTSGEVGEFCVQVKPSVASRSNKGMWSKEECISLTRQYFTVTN
The description is as above. The protocol: as §2

The target in test [6] is T4, IL1RN (human, UniProt P18510 26-177).
T4 construct: Recombinant human protein in ELISA and BLI
The description is as above. The protocol:
as §2

Test [7] addresses T5, CCL16 (human, UniProt O15467 24-120).
T5 construct: Recombinant human protein in ELISA and BLI
T5 sequence (looked up): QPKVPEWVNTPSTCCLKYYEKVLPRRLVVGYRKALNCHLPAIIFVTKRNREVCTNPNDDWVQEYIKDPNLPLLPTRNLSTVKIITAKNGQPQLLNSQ
Description: BLI, AHC sensor, nanobody-Fc captured, antigen in solution.
From the text: as §1

Test [8] has as its target T5, CCL16. As to the kind of experiment: ELISA, plate-coated recombinant human protein, nanobody-Fc. The protocol:
as §2

Test [9] has as its target T6, LAIR2 (human, UniProt Q6ISS4 22-152).
T6 construct: Recombinant human protein in ELISA
T6 sequence (looked up): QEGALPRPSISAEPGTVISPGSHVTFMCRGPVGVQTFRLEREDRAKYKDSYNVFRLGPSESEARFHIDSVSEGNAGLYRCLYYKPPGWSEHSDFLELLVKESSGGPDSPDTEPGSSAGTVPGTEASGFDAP
Described as above. The protocol:
as §2

Test [10] addresses T4, IL1RN. As to the kind of experiment: BLI, AHC sensor, nanobody-Fc captured, antigen in solution.
From the text: as §1

T4 sequence (P18510 26-177 limits assumed): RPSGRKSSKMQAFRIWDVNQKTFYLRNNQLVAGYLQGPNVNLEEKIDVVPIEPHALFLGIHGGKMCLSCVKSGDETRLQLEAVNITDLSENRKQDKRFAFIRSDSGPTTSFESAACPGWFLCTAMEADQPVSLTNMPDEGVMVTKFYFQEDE

B1: IL17A_Nb2.90 (Fc fusion)
chain: QVQLQESGGGLVQAGGSLRLSCAASGYISLRFYMGWYRQAPGKEREFVATIDDGSSTYYADSVKGRFTISRDNAKNTVYLQMNSLKPEDTAVYYCAVTAQTYYDHVYWGQGTQVTVSS
notes: Nanobody expressed and tested as Fc fusion (human IgG1); not shown: human IgG1 Fc (vector pCER243)
On to B1, for which the Kd in test [1] was 0.977 nM. Moreover, the EC50 in test [2] came to 0.249 nM.

B2: PROCR_Nb87 (Fc fusion)
chain: QVQLQESGGGLVQAGGSLRLSCAASGSISSYPYMGWYRQAPGKERELVASIASGTNTYYADSVKGRFTISRDNAKNTVYLQMNSLKPEDTAVYYCAADSTGPWSHVYWGQGTQVTVSS
notes: as for B1
In turn, B2 showed a Kd in [3] of 92.1 nM. In addition, the EC50 in test [4] stood at 0.0104 nM.

B3: PROCR_Nb88 (Fc fusion)
chain: QVQLQESGGGLVQAGGSLRLSCAASGTIFKLGYMGWYRQAPGKEREFVATITTGATTYYADSVKGRFTISRDNAKNTVYLQMNSLKPEDTAVYYCAADTYGPWAYSYWGQGTQVTVSS
notes: as for B1
B3 registered a Kd in [3] of 62.9 nM. For the same molecule, the EC50 in [4] was 0.287 nM.

B4: IL10RA_Nb72 (Fc fusion)
chain: QVQLQESGGGLVQAGGSLRLSCAASGTISSEHAMGWYRQAPGKERELVAGITYGSITNYADSVKGRFTISRDNAKNTVYLQMNSLKPEDTAVYYCAVYYYYRATIYHALGYWGQGTQVTVSS
notes: as for B1
On to B4, for which, in [5], the EC50 was 16.9 nM.

B5: IL1RN_Nb75 (Fc fusion)
chain: QVQLQESGGGLVQAGGSLRLSCAASGNIFRYDNMGWYRQAPGKEREFVATITYGSNTYYADSVKGRFTISRDNAKNTVYLQMNSLKPEDTAVYYCAAYFPYRSYDNSADTSSHSYWGQGTQVTVSS
notes: as for B1
B5: the EC50 in test [6] was determined as 6.9 nM.

B6: CCL16_Nb2.1 (Fc fusion)
chain: QVQLQESGGGLVQAGGSLRLSCAASGYISSYWDMGWYRQAPGKERELVAAIAPGTITYYADSVKGRFTISRDNAKNTVYLQMNSLKPEDTAVYYCAASEFDNEAHDYWGQGTQVTVSS
notes: as for B1
In test [7], B6 had a Kd of 17.4 nM. Further, the EC50 in [8] was determined as 0.882 nM.

B7: LAIR2_Nb2.51 (Fc fusion)
chain: QVQLQESGGGLVQAGGSLRLSCAASGSIFYPSAMGWYRQAPGKERELVASIGQGGSTYYADSVKGRFTISRDNAKNTVYLQMNSLKPEDTAVYYCAVQPYSANLHRYWGQGTQVTVSS
notes: as for B1
As to B7, in test [9], the EC50 is 0.379 nM.

B8: IL1RN_Nb77 (Fc fusion)
chain: QVQLQESGGGLVQAGGSLRLSCAASGTIFTWLVMGWYRQAPGKERELVASIDPGTNTYYADSVKGRFTISRDNAKNTVYLQMNSLKPEDTAVYYCAARYVAGYTVGAYHYYWGQGTQVTVSS
notes: as for B1
Molecule B8 yielded a Kd in [10] of 852 nM. In addition, the EC50 in test [6] is 0.168 nM.

B9: IL17A_Nb2.92 (Fc fusion)
chain: QVQLQESGGGLVQAGGSLRLSCAASGTISQGDYMGWYRQAPGKEREFVASIAIGTITYYADSVKGRFTISRDNAKNTVYLQMNSLKPEDTAVYYCAVSVQFSYDFYYWGQGTQVTVSS
notes: as for B1
As to B9, the affinity in test [1], expressed as Kd, was 0.656 nM. Further, in test [2], the EC50 turned out to be 0.179 nM.

These data come from patent US20230416942A1 (YALE UNIVERSITY, published 2023).
